This note sets out measurements from article PMC3078644.

For the assay, the target named is Sortilin (immobilised for SPR) (UniProt Q99523). The assay can be described thus: SPR. For orientation: In SPR one partner is held on a chip, and binding of the other changes the refractive index at the surface.

pKd: −log10 of the molar value.

Sequence of Sortilin (immobilised for SPR) (P20783 whole entry): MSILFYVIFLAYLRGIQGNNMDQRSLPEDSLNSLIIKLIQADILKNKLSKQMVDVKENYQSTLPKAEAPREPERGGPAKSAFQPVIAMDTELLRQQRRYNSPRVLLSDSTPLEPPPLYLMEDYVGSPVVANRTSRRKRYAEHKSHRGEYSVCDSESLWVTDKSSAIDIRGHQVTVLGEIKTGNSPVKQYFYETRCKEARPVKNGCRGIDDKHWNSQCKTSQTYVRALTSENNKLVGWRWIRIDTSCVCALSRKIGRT

Turning to “GST-NT3pro (prodomain of proNT3 fused to glutathione-S-transferase) (domain or fragment; other documents disagree on this pair)”, the pKd (in general, the Kd on a negative log10 scale, so that one unit is a factor of ten) is 7.70.
